Numbering of substitutions follows the chain as printed.

In data set [1] the target is T1, HEN1-RHK389,397,477AAA (Arabidopsis thaliana, UniProt Q9C5Q8 1-942, R389A;H397A;K477A).
T1 sequence: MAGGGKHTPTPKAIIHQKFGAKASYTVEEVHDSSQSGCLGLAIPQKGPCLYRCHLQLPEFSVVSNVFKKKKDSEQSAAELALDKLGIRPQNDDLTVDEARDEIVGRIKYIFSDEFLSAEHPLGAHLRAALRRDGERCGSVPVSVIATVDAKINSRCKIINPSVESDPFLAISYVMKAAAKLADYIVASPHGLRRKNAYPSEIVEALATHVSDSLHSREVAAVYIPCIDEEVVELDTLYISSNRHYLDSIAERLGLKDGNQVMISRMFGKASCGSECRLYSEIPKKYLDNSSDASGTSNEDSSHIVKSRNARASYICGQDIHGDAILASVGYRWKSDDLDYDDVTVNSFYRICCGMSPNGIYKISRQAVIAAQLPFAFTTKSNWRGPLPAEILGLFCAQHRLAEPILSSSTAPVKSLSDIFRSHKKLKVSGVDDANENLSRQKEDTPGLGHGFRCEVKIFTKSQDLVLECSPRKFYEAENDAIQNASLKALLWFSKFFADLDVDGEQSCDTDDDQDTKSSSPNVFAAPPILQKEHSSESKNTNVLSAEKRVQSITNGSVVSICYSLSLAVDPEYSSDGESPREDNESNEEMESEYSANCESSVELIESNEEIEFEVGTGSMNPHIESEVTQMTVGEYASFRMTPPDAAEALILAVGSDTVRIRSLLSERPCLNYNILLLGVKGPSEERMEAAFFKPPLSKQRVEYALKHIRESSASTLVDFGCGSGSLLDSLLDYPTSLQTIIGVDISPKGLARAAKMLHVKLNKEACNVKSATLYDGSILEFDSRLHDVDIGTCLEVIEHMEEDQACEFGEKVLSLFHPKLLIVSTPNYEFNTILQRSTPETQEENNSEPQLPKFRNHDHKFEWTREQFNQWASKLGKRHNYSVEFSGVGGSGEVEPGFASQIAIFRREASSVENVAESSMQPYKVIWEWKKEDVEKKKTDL
As to the kind of experiment: EMSA.

For data set [2], the target named is T2, HEN1 wt (Arabidopsis thaliana, UniProt Q9C5Q8 1-942).
T2 sequence: T1 sequence with A389R, A397H, A477K
As to the kind of experiment: EMSA.

B1: miR173/miR173* (dsRNA)
RNA 1: UUCGCUUGCAGAGAGAAAUCAC
RNA 2: GAUUCUCUGUGUAAGCGAAAG
For orientation: Kd means the constant that tells how readily two partners part at equilibrium. Read a high Kd as weaker binding. In the case of B1, the Kd was 0.065 ± 0.012 µM in data set [1] and 0.00032 ± 3e-05 µM in data set [2].

The values above are taken from publication PMC4357707 (Nucleic Acids Research, 2015).
